Paper PMC12316933 (2025)

T1: PT09 N2 (recombinant N2 neuraminidase head of H3N2 A/Perth/16/2009) (Influenza A virus H3N2 A/Perth/16/2009)
T1 chain: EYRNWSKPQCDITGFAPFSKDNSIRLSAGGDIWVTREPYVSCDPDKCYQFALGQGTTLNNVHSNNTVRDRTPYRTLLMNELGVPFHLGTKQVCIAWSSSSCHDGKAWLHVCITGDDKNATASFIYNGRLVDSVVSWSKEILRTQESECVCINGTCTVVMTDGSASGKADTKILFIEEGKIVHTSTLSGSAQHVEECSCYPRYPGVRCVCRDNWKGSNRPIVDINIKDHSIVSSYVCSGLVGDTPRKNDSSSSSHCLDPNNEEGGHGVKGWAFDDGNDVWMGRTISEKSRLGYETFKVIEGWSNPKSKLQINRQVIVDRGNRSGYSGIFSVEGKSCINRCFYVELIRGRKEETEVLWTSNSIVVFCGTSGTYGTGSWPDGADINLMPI


Experiments:
Assay in all cases: BLI
[1] = target: IN11 N2 (recombinant N2 neuraminidase head of H3N2 A/Indiana/08/2011) (Influenza A virus H3N2 A/Indiana/08/2011)
[2] = target: CO17 B NA (recombinant neuraminidase head of B/Colorado/06/2017, B/Victoria-lineage) (Influenza B virus B/Colorado/06/2017)
[3] = target: T1, PT09 N2 (recombinant N2 neuraminidase …)

Binder	Kd [1]	Kd [2]	Kd [3]
DA03E17 IgG (human monoclonal antibody) (antibody, V domains shown) VH: EVQLVESGPGLVKPSQTLSLTCTVSGGSFSSGGYLWSWVRQHPGKGLEWIGYILYSGSPYYNPSLESRATISLDTSKNQFSLRLISVTAADAAMYYCARVDGSGNTDRYYFYGMDVWGQGTMVTVSS VL: DIQMTQSPSSVSASVGDRVTITCRASRGIGDWLAWYQQKPGKAPKLLIYAASSLQRGVPSRFSGSGSGTDFTLTISSLQPDDFATYYCQQADGWEVWTFGQGTKVDVK	< 0.001 nM	0.969 nM	< 0.001 nM
DA03E17 Fab (Fab, V domains shown) VH: EVQLVESGPGLVKPSQTLSLTCTVSGGSFSSGGYLWSWVRQHPGKGLEWIGYILYSGSPYYNPSLESRATISLDTSKNQFSLRLISVTAADAAMYYCARVDGSGNTDRYYFYGMDVWGQGTMVTVSS VL: DIQMTQSPSSVSASVGDRVTITCRASRGIGDWLAWYQQKPGKAPKLLIYAASSLQRGVPSRFSGSGSGTDFTLTISSLQPDDFATYYCQQADGWEVWTFGQGTKVDVK	4.53 nM	913 nM	31 nM
